% Inhibition of Specific Binding data for two molecules are collected here from US20220315554A1, “COMPOUNDS COMPRISING A […] LIGAND AND USE THEREOF” (priority 2019, published 2022).

What all share (settings): remark: other sources report otherwise
In test [1] the target is T1, Potassium Channel hERG (human) (human), Q12809.
T1 chain: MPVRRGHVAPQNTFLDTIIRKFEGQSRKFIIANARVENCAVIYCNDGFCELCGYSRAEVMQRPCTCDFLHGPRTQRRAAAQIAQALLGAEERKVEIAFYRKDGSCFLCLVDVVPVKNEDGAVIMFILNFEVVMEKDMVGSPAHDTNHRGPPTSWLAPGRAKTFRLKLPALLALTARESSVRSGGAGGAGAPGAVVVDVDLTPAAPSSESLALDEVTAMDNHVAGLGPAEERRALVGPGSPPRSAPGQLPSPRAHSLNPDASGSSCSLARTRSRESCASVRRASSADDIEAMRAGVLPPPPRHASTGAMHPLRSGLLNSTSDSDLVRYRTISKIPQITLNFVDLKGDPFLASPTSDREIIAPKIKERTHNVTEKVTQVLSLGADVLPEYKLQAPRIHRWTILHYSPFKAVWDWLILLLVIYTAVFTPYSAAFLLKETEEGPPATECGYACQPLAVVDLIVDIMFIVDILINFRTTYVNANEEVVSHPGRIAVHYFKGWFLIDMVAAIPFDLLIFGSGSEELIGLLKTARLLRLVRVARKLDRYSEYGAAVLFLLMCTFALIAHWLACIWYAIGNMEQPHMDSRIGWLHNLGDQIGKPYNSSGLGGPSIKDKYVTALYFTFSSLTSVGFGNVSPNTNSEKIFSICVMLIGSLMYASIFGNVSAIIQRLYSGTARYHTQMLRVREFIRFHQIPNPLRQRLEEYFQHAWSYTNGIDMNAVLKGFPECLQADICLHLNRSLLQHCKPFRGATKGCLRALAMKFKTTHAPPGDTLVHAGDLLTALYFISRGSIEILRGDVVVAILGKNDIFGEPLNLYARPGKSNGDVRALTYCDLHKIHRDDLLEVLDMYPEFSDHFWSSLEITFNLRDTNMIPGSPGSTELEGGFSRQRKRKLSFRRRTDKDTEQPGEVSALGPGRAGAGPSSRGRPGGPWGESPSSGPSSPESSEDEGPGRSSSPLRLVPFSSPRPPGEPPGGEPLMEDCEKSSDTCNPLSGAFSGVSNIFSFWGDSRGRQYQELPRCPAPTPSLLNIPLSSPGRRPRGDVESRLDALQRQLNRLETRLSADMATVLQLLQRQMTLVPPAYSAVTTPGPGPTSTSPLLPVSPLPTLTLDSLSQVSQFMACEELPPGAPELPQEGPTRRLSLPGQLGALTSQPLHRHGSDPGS
Kind of test: [3H] Dofetilide displacement, 10 uM compound.

Substrate in test [2]: N neuronal alpha 4beta 2 (h) (human (printed (h))), P43681
Kind of test: radioligand displacement, 10 uM compound. In general terms: Displacement assays read how much labelled ligand stays bound in the presence of the test substance.

Test [3] deals with T2, GR (h) (human (printed (h))), P04150.
T2 chain: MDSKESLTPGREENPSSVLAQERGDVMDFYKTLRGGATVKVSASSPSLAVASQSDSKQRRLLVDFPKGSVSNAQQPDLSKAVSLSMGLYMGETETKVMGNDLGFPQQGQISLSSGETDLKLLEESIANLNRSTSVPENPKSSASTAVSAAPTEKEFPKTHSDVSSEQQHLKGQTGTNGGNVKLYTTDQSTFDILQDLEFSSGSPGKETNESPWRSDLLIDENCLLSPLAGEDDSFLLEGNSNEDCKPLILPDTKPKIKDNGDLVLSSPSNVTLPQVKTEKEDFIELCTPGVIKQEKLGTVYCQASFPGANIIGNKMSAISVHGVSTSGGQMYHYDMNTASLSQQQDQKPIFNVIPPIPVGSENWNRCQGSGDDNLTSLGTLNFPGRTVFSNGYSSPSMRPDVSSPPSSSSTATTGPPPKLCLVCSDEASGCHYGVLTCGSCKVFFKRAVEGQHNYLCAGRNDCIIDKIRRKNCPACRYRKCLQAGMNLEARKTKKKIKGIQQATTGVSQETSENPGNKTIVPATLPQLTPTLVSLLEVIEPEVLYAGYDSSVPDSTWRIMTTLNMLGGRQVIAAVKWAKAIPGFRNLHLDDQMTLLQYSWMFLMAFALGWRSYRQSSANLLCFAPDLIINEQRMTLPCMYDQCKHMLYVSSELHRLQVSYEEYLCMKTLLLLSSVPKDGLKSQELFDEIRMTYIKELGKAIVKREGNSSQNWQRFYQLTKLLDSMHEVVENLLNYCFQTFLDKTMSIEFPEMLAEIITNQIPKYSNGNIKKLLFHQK
Kind of test: radioligand displacement, 10 uM compound.

Test [4] concerns the target T3, M2 (h) (human (printed (h))), P08172.
T3 chain: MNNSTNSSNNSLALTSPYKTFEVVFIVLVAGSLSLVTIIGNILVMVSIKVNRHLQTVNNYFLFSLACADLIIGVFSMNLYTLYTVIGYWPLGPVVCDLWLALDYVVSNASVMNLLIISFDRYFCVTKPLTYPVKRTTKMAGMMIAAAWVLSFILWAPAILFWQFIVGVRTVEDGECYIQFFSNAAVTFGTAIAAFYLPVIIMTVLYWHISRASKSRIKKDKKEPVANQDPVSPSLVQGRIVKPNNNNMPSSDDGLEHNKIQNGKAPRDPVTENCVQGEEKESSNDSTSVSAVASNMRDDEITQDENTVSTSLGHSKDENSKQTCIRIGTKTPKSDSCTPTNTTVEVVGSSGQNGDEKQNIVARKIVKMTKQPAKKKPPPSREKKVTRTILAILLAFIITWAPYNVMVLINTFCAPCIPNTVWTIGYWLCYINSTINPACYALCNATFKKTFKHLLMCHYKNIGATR
Kind of test: radioligand displacement, 10 uM compound.

The target in test [5] is beta 2 (h) (human (printed (h))), P07550. Kind of test: radioligand displacement, 10 uM compound.

Bridge positions count the residues as written; N and C are the ends. * marks the point of attachment. tMeBn(DOTA-AET) = Cys-Cys bridge (thioethers) carrying DOTA-AET; tMeBn(DOTA-PP) = Cys-Cys bridge (thioethers) carrying DOTA-PP; Hexanoyl = CCCCCC(=O)*

With Hexanoyl-CPPTQFCD-NH2 (linker 1-7 via tMeBn(DOTA-PP)) [Hex-[Cys(tMeBn(DOTA-PP))-Pro-Pro-Thr-Gln-Phe-Cys]-Asp-NH2 (3BP-3407)], the % Inhibition of Specific Binding in test [1] is 2%; in test [2], -8%; in test [3] it was -2%; in test [4] it was -4%; in test [5] it was 4%.
In the case of Hexanoyl-CPPTQFC-OH (linker 1-7 via tMeBn(DOTA-AET)) [Hex-[Cys(tMeBn(DOTA-AET))-Pro-Pro-Thr-Gln-Phe-Cys]-OH (3BP-3554)], the % Inhibition of Specific Binding in test [1] was 6%; in test [2], -2%; in test [3], 0%; in test [4] it was 7%; in test [5], 8%.
